These results are taken from patent US20230242675A1 (SHANGHAI EPIMAB BIOTHERAPEUTICS, published 2023).

The target in assay [1] is T1, human PD-L1/His fusion protein (human, UniProt Q9NZQ7 19-239). Description: BLI off-rate; test group 3. As for the experimental part: (§1) Briefly, antibodies were characterized for affinities and binding kinetics by Octet®RED96 biolayer interferometry (Pall ForteBio LLC). Antibodies were captured by Anti-hIgG Fc Capture (AHC) Biosensors (Pall) at a concentration of 100 nM for 30 seconds. Sensors were then dipped into running buffer (1×pH 7.2 PBS, 0.05% Tween 20, 0.1% BSA) for 60 seconds to check baseline. Binding was measured by dipping sensors into a single concentration of recombinant human PD-L1/His fusion protein (Novoprotein). Dissociation was followed by dipping sensors into running buffer for 1200 seconds. The association and dissociation curves were fitted to a 1:1 Langmuir binding model using ForteBio Data Analysis software (Pall). […] The off-rate ratio serves as a data normalization. Accordingly, in each test group, the off-rate ratios of the humanized antibodies can be compared with that of the chimeric antibody, and the off-rate ratios of each of the humanized antibodies can be compared to one another within all test groups.

In assay [2] the target is T1, human PD-L1/His fusion protein. Description: BLI Octet RED96, antibody on AHC sensor, single conc. PD-L1/His; test group 3. As for the experimental part: as §1
(In BLI a coated tip is dipped into the sample, and binding shifts an interference pattern.)

Assay [3] has the same target. Description: BLI off-rate; test group 2. The procedure: as §1
Assay [4] has the same target. Description: BLI Octet RED96, antibody on AHC sensor, single conc. PD-L1/His; test group 2. As for the experimental part:
as §1

T1 sequence (Q9NZQ7 19-239 limits assumed): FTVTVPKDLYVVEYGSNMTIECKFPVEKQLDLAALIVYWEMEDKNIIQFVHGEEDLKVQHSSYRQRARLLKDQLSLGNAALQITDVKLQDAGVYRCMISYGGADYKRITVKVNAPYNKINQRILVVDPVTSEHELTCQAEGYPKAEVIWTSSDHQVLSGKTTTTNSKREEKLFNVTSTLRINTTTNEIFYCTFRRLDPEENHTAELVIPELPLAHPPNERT

B1: HuEM0005-87-18 (antibody, human IgG1, V domains shown)
VH: EVQLVQSGAEVKKPGASVKVSCKASGYTFTDYYINWVRQAPGQGLEWIGETIPNTGGTTYNQKFKARVTLTVDKSTSTVYMELSSLRSEDTAVYYCARYQSGSPFAYWGQGTTVTVSS
VL: EIVMTQSPATLSVSPGERATLSCKASQNVGTAVAWYQQKPGQAPRLLIYSASNRYTGVPDRFTGSGSGTEFTLTISSLQSEDFAVYYCQQHYSTPYTFGGGTKLEIK
For orientation: koff means a measure of how fast the partners let go of each other. Read a low koff as slow dissociation. Take B1: the “Off-Rate Ratio to that of EM0005-87c” value in assay [1] was 75%. The off-rate constant (koff) in assay [2] is 0.00101 s⁻¹.

B2: HuEM0005-87-12 (antibody, human IgG1, V domains shown)
VH: EVQLVQSGAEVKKPGASVKVSCKASGYTFTDYYINWVRQAPGQGLEWMGETIPNTGGTTYNQKFKARVTLTVDTSTSTVYMELSSLRSEDTAVYYCARYQSGSPFAYWGQGTTVTVSS
VL: EIVMTQSPATLSVSPGERATLSCKASQNVGTAVAWYQQKPGQAPRLLIYSASNRYTGVPARFSGSGSGTEFTLTISSLQSEDFAVYYCQQHYSTPYTFGGGTKLEIK
Regarding B2, the “Off-Rate Ratio to that of EM0005-87c” value in assay [3] turned out to be 77%. For the same molecule, the off-rate constant (koff) in assay [4] turned out to be 0.000798 s⁻¹.

B3: HuEM0005-87-15 (antibody, human IgG1, V domains shown)
VH: EVQLVQSGAEVKKPGASVKVSCKASGYSFTDYYINWVKQAPGQGLEWIGETIPNTGGTTYNQKFKAKATLTRDKSTSTAYMELKSLRSEDTAVYYCARYQSGSPFAYWGQGTTVTVSS
VL: EIVMTQSPATLSVSPGERATLSCKASQNVGTAVAWYQQKPGQAPRLLIYSASNRYTGVPARFSGSGSGTEFTLTISSLQSEDFAVYYCQQHYSTPYTFGGGTKLEIK
Turning to B3, in assay [1], the “Off-Rate Ratio to that of EM0005-87c” value came to 96%. This molecule registered a koff in assay [2] of 0.00129 s⁻¹.

B4: HuEM0005-87-14 (antibody, human IgG1, V domains shown)
VH: EVQLVQSGAEVKKPGASVKVSCKASGYSFTDYYINWVRQAPGQGLEWIGETIPNTGGTTYNQKFKAKATLTVDKSTSTAYMELSSLRSEDTAVYYCARYQSGSPFAYWGQGTTVTVSS
VL: EIVMTQSPATLSVSPGERATLSCKASQNVGTAVAWYQQKPGQAPRLLIYSASNRYTGVPARFSGSGSGTEFTLTISSLQSEDFAVYYCQQHYSTPYTFGGGTKLEIK
For the molecule B4, the “Off-Rate Ratio to that of EM0005-87c” value in assay [1] was determined as 80%. This molecule also gave an off-rate constant (koff) in assay [2] of 0.00108 s⁻¹.

B5: HuEM0005-87-13 (antibody, human IgG1, V domains shown)
VH: EVQLVQSGAEVKKPGASVKVSCKASGYTFTDYYINWVRQAPGQGLEWIGETIPNTGGTTYNQKFKARVTLTVDKSTSTVYMELSSLRSEDTAVYYCARYQSGSPFAYWGQGTTVTVSS
VL: EIVMTQSPATLSVSPGERATLSCKASQNVGTAVAWYQQKPGQAPRLLIYSASNRYTGVPARFSGSGSGTEFTLTISSLQSEDFAVYYCQQHYSTPYTFGGGTKLEIK
Take B5: in assay [1], the “Off-Rate Ratio to that of EM0005-87c” value worked out at 74%. Besides, in assay [2], the koff is 0.001 s⁻¹.

B6: HuEM0005-87-10 (antibody, human IgG1, V domains shown)
VH: EVQLVQSGAEVKKPGASVKVSCKASGYSFTDYYINWVKQAPGQGLEWIGETIPNTGGTTYNQKFKAKATLTRDKSTSTAYMELKSLRSEDTAVYYCARYQSGSPFAYWGQGTTVTVSS
VL: EIVMTQSPATLSVSPGERATLSCKASQNVGTAVAWYQQKPGQAPRLLIYSASNRYTGIPARFSGSGSGTEFTLTISSLQSEDFAVYYCQQHYSTPYTFGGGTKLEIK
Take B6: the “Off-Rate Ratio to that of EM0005-87c” value in assay [3] was 96%. Moreover, the koff in assay [4] worked out at 0.000994 s⁻¹.

B7: HuEM0005-87-11 (antibody, human IgG1, V domains shown)
VH: EVQLVQSGAEVKKPGASVKVSCKASGYTFTDYYINWVRQAPGQGLEWMGETIPNTGGTTYNQKFKARVTMTVDTSTSTVYMELSSLRSEDTAVYYCARYQSGSPFAYWGQGTTVTVSS
VL: EIVMTQSPATLSVSPGERATLSCKASQNVGTAVAWYQQKPGQAPRLLIYSASNRYTGVPARFSGSGSGTEFTLTISSLQSEDFAVYYCQQHYSTPYTFGGGTKLEIK
notes: also called HuEM0005-87-l l
Turning to B7, the “Off-Rate Ratio to that of EM0005-87c” value in assay [3] turned out to be 74%. Also, the koff in assay [4] was 0.000769 s⁻¹.

B8: HuEM0005-87-17 (antibody, human IgG1, V domains shown)
VH: EVQLVQSGAEVKKPGASVKVSCKASGYTFTDYYINWVRQAPGQGLEWMGETIPNTGGTTYNQKFKARVTLTVDTSTSTVYMELSSLRSEDTAVYYCARYQSGSPFAYWGQGTTVTVSS
VL: EIVMTQSPATLSVSPGERATLSCKASQNVGTAVAWYQQKPGQAPRLLIYSASNRYTGVPDRFTGSGSGTEFTLTISSLQSEDFAVYYCQQHYSTPYTFGGGTKLEIK
Regarding B8, the “Off-Rate Ratio to that of EM0005-87c” value in assay [1] was found to be 66%. Also, the koff in assay [2] is 0.000888 s⁻¹.

B9: HuEM0005-87-16 (antibody, human IgG1, V domains shown)
VH: EVQLVQSGAEVKKPGASVKVSCKASGYTFTDYYINWVRQAPGQGLEWMGETIPNTGGTTYNQKFKARVTMTVDTSTSTVYMELSSLRSEDTAVYYCARYQSGSPFAYWGQGTTVTVSS
VL: EIVMTQSPATLSVSPGERATLSCKASQNVGTAVAWYQQKPGQAPRLLIYSASNRYTGVPDRFTGSGSGTEFTLTISSLQSEDFAVYYCQQHYSTPYTFGGGTKLEIK
As for B9, the “Off-Rate Ratio to that of EM0005-87c” value in assay [1] was 69%. In assay [2], this molecule showed a koff of 0.000932 s⁻¹.

B10: HuEM0005-87-9 (antibody, human IgG1, V domains shown)
VH: EVQLVQSGAEVKKPGASVKVSCKASGYSFTDYYINWVRQAPGQGLEWIGETIPNTGGTTYNQKFKAKATLTVDKSTSTAYMELSSLRSEDTAVYYCARYQSGSPFAYWGQGTTVTVSS
VL: EIVMTQSPATLSVSPGERATLSCKASQNVGTAVAWYQQKPGQAPRLLIYSASNRYTGIPARFSGSGSGTEFTLTISSLQSEDFAVYYCQQHYSTPYTFGGGTKLEIK
B10: in assay [3], the “Off-Rate Ratio to that of EM0005-87c” value worked out at 84%. Besides, the off-rate (koff) in assay [4] came to 0.000878 s⁻¹.

B11: HuEM0005-90-7 (antibody, human IgG1, V domains shown)
VH: EVQLVQSGAEVKKPGASVKVSCKTSGYTFTSHSINWVRQATGQGLEWMGYMYIGNGYTEYNEKFKGRVTMTSNTSISTAYMELSSLRSEDTAVYYCAKITPVVAPYVMDYWGQGTSVTVSS
VL: DIQMTQSPSFLSASVGDRVTITCKASQDVGTAVAWYQQKPGKAPKLLIYWASTRHTGVPSRFSGSGSGTEFTLTISSLQPEDFATYYCQQYSSYPYTFGQGTKLEIK
With B11, in assay [3], the “Off-Rate Ratio to that of EM0005-90c” value was 135%. Further, the off-rate constant (koff) in assay [4] is 0.00046 s⁻¹.

B12: HuEM0005-90-13 (antibody, human IgG1, V domains shown)
VH: EVQLVQSGAEVKKPGASVKVSCKASGYTFTSHSINWVRQATGQGLEWMGYMYIGNGYTEYNEKFKGRVTLTSNTSISTAYMELSSLRSEDTAVYYCAKITPVVAPYVMDYWGQGTSVTVSS
VL: DIQMTQSPSFLSASVGDRVTITCKASQDVGTAVAWYQQKPGKAPKLLIYWASTRHTGVPDRFTGSGSGTEFTLTISSLQPEDFATYYCQQYSSYPYTFGQGTKLEIK
Take B12: the “Off-Rate Ratio to that of EM0005-90c” value in assay [1] amounted to 115%. In assay [2], this molecule displayed a koff of 0.000439 s⁻¹.

B13: HuEM0005-90-12 (antibody, human IgG1, V domains shown)
VH: EVQLVQSGAEVKKPGASVKVSCKTSGYTFTSHSINWVRQATGQGLEWIGYMYIGNGYTEYNEKFKGRATLTSNTSISTAYMELSSLRSEDTAVYYCAKITPVVAPYVMDYWGQGTSVTVSS
VL: DIVMTQSPSFLSASVGDRVTITCKASQDVGTAVAWYQQKPGKAPKLLIYWASTRHTGVPSRFSGSGSGTDFTLTISSLQPEDFATYYCQQYSSYPYTFGQGTKLEIK
Turning to B13, the “Off-Rate Ratio to that of EM0005-90c” value in assay [3] stood at 100%. The molecule also registered an off-rate constant (koff) in assay [4] of 0.000342 s⁻¹.

B14: HuEM0005-90-10 (antibody, human IgG1, V domains shown)
VH: EVQLVQSGAEVKKPGASVKVSCKASGYTFTSHSINWVRQATGQGLEWIGYMYIGNGYTEYNEKFKGRATLTSNTSISTAYMELSSLRSEDTAVYYCAKITPVVAPYVMDYWGQGTSVTVSS
VL: DIVMTQSPSFLSASVGDRVTITCKASQDVGTAVAWYQQKPGKAPKLLIYWASTRHTGVPSRFSGSGSGTDFTLTISSLQPEDFATYYCQQYSSYPYTFGQGTKLEIK
For the molecule B14, the “Off-Rate Ratio to that of EM0005-90c” value in assay [3] came out at 91%. Further, the dissociation rate constant (koff) in assay [4] amounted to 0.00031 s⁻¹.

B15: HuEM0005-90-8 (antibody, human IgG1, V domains shown)
VH: EVQLVQSGAEVKKPGASVKVSCKTSGYTFTSHSINWVRQATGQGLEWIGYMYIGNGYTEYNEKFKGRATLTSNTSISTAYMELSSLRSEDTAVYYCAKITPVVAPYVMDYWGQGTSVTVSS
VL: DIQMTQSPSFLSASVGDRVTITCKASQDVGTAVAWYQQKPGKAPKLLIYWASTRHTGVPSRFSGSGSGTEFTLTISSLQPEDFATYYCQQYSSYPYTFGQGTKLEIK
Consider B15, for which the “Off-Rate Ratio to that of EM0005-90c” value in assay [3] worked out at 102%. Also, the koff in assay [4] was determined as 0.000349 s⁻¹.

B16: HuEM0005-90-9 (antibody, human IgG1, V domains shown)
VH: EVQLVQSGAEVKKPGASVKVSCKASGYTFTSHSINWVRQATGQGLEWMGYMYIGNGYTEYNEKFKGRVTLTSNTSISTAYMELSSLRSEDTAVYYCAKITPVVAPYVMDYWGQGTSVTVSS
VL: DIVMTQSPSFLSASVGDRVTITCKASQDVGTAVAWYQQKPGKAPKLLIYWASTRHTGVPSRFSGSGSGTDFTLTISSLQPEDFATYYCQQYSSYPYTFGQGTKLEIK
On to B16, for which, in assay [3], the “Off-Rate Ratio to that of EM0005-90c” value came out at 109%. Moreover, in assay [4], the koff worked out at 0.000373 s⁻¹.

B17: HuEM0005-90-11 (antibody, human IgG1, V domains shown)
VH: EVQLVQSGAEVKKPGASVKVSCKTSGYTFTSHSINWVRQATGQGLEWMGYMYIGNGYTEYNEKFKGRVTMTSNTSISTAYMELSSLRSEDTAVYYCAKITPVVAPYVMDYWGQGTSVTVSS
VL: DIVMTQSPSFLSASVGDRVTITCKASQDVGTAVAWYQQKPGKAPKLLIYWASTRHTGVPSRFSGSGSGTDFTLTISSLQPEDFATYYCQQYSSYPYTFGQGTKLEIK
Take B17: the “Off-Rate Ratio to that of EM0005-90c” value in assay [3] is 121%. The dissociation rate constant (koff) in assay [4] came out at 0.000414 s⁻¹.
